According to paper PMC10626543, “Native lamin A/C proteomes and novel partners from heart and skeletal muscle in a mouse chronic inflammation model of human frailty” (Frontiers in Cell and Developmental Biology, 2023):

T1: recombinant lamin A tail (residues 385–646 of human mature lamin A) (human, UniProt P02545 385-646)
T1 construct: lamin A, human, residues 385-646 of mature lamin A: flexible linker 385-429, Ig-fold 430-544, disordered 545-646; also called lamin A tails; LamA; not shown: His tag, C-terminal, kept
T1 sequence (looked up): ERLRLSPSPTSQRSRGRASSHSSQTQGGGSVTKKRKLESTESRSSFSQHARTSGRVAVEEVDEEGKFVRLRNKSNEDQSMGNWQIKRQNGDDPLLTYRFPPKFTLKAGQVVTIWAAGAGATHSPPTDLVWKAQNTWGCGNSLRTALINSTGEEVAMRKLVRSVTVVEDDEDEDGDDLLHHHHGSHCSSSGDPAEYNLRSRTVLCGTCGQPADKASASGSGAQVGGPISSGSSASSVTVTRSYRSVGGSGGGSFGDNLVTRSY


The binders below were run against T1, recombinant lamin A tail (residues …) (assay: peptide or protein array; synthetic 20-mer peptides (7-residue offset) on cellulose; probed 3 h at room temperature with 190 nM His-tagged lamin A tail in casein blocking solution (TBS-T, sucrose, pH 7.0); bound lamin detected with anti-lamin A/C clone 14 and AP-conjugated secondary antibody; two experiments, each with an antibodies-only control). Settings: both partners purified.

Binder	binding result
KFVRLRNKSNEDQSMGNWQI (prelamin A, human, residues 450-469 (Ig-fold); source: synthetic peptide, on cellulose array) [prelamin A peptide W14 (aa 450–469)]	binds
PKFTLKAGQVVTIWAAGAGA (prelamin A, human, residues 485-504 (Ig-fold); source: synthetic peptide, on cellulose array) [prelamin A peptide W19 (aa 485–504)]	binds
AAGAGATHSPPTDLVWKAQN (prelamin A, human, residues 499-518 (Ig-fold); source: synthetic peptide, on cellulose array) [prelamin A peptide X1 (aa 499–518)]	binds
SSGLVSTPVPRADAAGLAWP (Perm1, human, residues 441-460; source: synthetic peptide, on cellulose array) [Perm1 peptide h5 (aa 441–460)]	binds
EENEEAEAAAAGQDPAGVQW (Perm1, human, residues 593-612; source: synthetic peptide, on cellulose array) [Perm1 peptide i4 (aa 593–612)]	binds
FVAFATWAVRTSDPHTPDAW (Perm1, human, residues 737-756; source: synthetic peptide, on cellulose array) [Perm1 peptide j2 (aa 737–756)]	binds
QTATGAHGGPGAWEAVAVGP (Perm1, human, residues 529-548; source: synthetic peptide, on cellulose array) [Perm1 peptide h16 (aa 529–548)]	binds
SGCDEIIFAEDYQRVEDLAW (Lmcd1, human, residues 309-328 (second LIM domain); source: synthetic peptide, on cellulose array) [Lmcd1 peptide v17 (aa 309–328)]	binds
PWALTFSYGRALQASALKAW (AldoA, human, residues 295-314; source: synthetic peptide, on cellulose array) [AldoA peptide r18 (aa 295–314)]	binds
YGRALQASALKAWGGKKENL (AldoA, human, residues 302-321; source: synthetic peptide, on cellulose array) [AldoA peptide r19 (aa 302–321)]	binds
SALKAWGGKKENLKAAQEEY (AldoA, human, residues 309-328; source: synthetic peptide, on cellulose array) [AldoA peptide r20 (aa 309–328)]	binds
YLKYEPGAVELSRRHPIASW (Tmem38a, human, residues 36-55; source: synthetic peptide, on cellulose array) [Tmem38A peptide j13 (aa 36–55)]	binds
KGSGVALMSNFEQLLRGVWK (Tmem38a, human, residues 155-174; source: synthetic peptide, on cellulose array) [Tmem38A peptide k10 (aa 155–174)]	binds
FTLQQTRWLPVSKASLIFIF (Tmem38a, human, residues 197-216; source: synthetic peptide, on cellulose array) [Tmem38A peptide k16 (aa 197–216)]	binds
